Measurements reported in the supplement of paper PMC11316812.
± gives the standard deviation of the averaged measurements.

Columns and labels:
MCF7 = test: percentage of EdU-negative (G0-arrested) nuclei per well, 72 h; higher = more G0 arrest; conditions: reference: sequence is the full UniProt precursor, the tested protein was the secreted form or ectodomain
hTERT-HMEC = test: as above; conditions: reference: sequence is the full UniProt precursor, the tested protein was the secreted form or ectodomain
[1] = protein concentration 0.0111429 µM
[2] = protein concentration 0.111429 µM
[3] = protein concentration 0.0225 µM
[4] = protein concentration 0.01475 µM
[5] = protein concentration 0.1475 µM
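Note: secreted proteins added to cultured cells, EdU pulse at the end, nuclei found by Hoechst imaging, EdU status from nuclear versus surrounding ring intensity ratio, PBS as neutral control.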

Sequence	percentage of EdU-negative (MCF7; [3]) [%]	percentage of EdU-negative (MCF7; protein concentration 0.225 µM) [%]	percentage of EdU-negative (hTERT-HMEC; [3]) [%]	percentage of EdU-negative (hTERT-HMEC; protein concentration 0.225 µM) [%]	also measured
MRKELQLSLSVTLLLVCGFLYQFTLKSSCLFCLPSFKSHQGLEALLSHRRGIVFLETSERMEPPHLVSCSVESAAKIYPEWPVVFFMKGLTDSTPMPSNSTYPAFSFLSAIDNVFLFPLDMKRLLEDTPLFSWYNQINASAERNWLHISSDASRLAIIWKYGGIYMDTDVISIRPIPEENFLAAQASRYSSNGIFGFLPHHPFLWECMENFVEHYNSAIWGNQGPELMTRMLRVWCKLEDFQEVSDLRCLNISFLHPQRFYPISYREWRRYYEVWDTEPSFNVSYALHLWNHMNQEGRAVIRGSNTLVENLYRKHCPRTYRDLIKGPEGSVTGELGPGNK [Q9UNA3]					percentage of EdU-negative (MCF7; [1]): 26.4 ± 0.46%; percentage of EdU-negative (MCF7; [2]): 27.4 ± 2.4%; percentage of EdU-negative (hTERT-HMEC; [1]): 4.541 ± 0.041%; percentage of EdU-negative (hTERT-HMEC; [2]): 5.48 ± 1.1%
MRKFAYCKVVLATSLIWVLLDMFLLLYFSECNKCDEKKERGLPAGDVLEPVQKPHEGPGEMGKPVVIPKEDQEKMKEMFKINQFNLMASEMIALNRSLPDVRLEGCKTKVYPDNLPTTSVVIVFHNEAWSTLLRTVHSVINRSPRHMIEEIVLVDDASERDFLKRPLESYVKKLKVPVHVIRMEQRSGLIRARLKGAAVSKGQVITFLDAHCECTVGWLEPLLARIKHDRRTVVCPIIDVISDDTFEYMAGSDMTYGGFNWKLNFRWYPVPQREMDRRKGDRTLPVRTPTMAGGLFSIDRDYFQEIGTYDAGMDIWGGENLEISFRIWQCGGTLEIVTCSHVGHVFRKATPYTFPGGTGQIINKNNRRLAEVWMDEFKNFFYIISPGVTKVDYGDISSRVGLRHKLQCKPFSWYLENIYPDSQIPRHYFSLGEIRNVETNQCLDNMARKENEKVGIFNCHGMGGNQVFSYTANKEIRTDDLCLDVSKLNGPVTMLKCHHLKGNQLWEYDPVKLTLQHVNSNQCLDKATEEDSQVPSIRDCNGSRSQQWLLRNVTLPEIF	25.1 ± 1	23.6 ± 2.5	4.8 ± 0.5	5.577 ± 0.015	
MRKMNTLLLVSLSFLYLKEVMGLKCNTCIYTEGWKCMAGRGTCIAKENELCSTTAYFRGDKHMYSTHMCKYKCREEESSKRGLLRVTLCCDRNFCNVF [P0C8F1]	24.7 ± 1.3	27.4 ± 0.56	4.34 ± 0.4	7.87 ± 1.3	
MRLAGPLRIVVLVVSVGVTWIVVSILLGGPGSGFPRIQQLFTSPESSVTAAPRARKYKCGLPQPCPEEHLAFRVVSGAANVIGPKICLEDKMLMSSVKDNVGRGLNIALVNGVSGELIEARAFDMWAGDVNDLLKFIRPLHEGTLVFVASYDDPATKMNEETRKLFSELGSRNAKELAFRDSWVFVGAKGVQNKSPFEQHVKNSKHSNKYEGWPEALEMEGCIPRRSTAS	24.6 ± 1.1	25.8 ± 2.3	5.06 ± 0.4	6.75 ± 0.34	
MRLAVLFSGALLGLLAAQGTGNDCPHKKSATLLPSFTVTPTVTESTGTTSHRTTKSHKTTTHRTTTTGTTSHGPTTATHNPTTTSHGNVTVHPTSNSTATSQGPSTATHSPATTSHGNATVHPTSNSTATSPGFTSSAHPEPPPPSPSPSPTSKETIGDYTWTNGSQPCVHLQAQIQIRVMYTTQGGGEAWGISVLNPNKTKVQGSCEGAHPHLLLSFPYGHLSFGFMQDLQQKVVYLSYMAVEYNVSFPHAAQWTFSAQNASLRDLQAPLGQSFSCSNSSIILSPAVHLDLLSLRLQAAQLPHTGVFGQSFSCPSDRSILLPLIIGLILLGLLALVLIAFCIIRRRPSAYQAL	25.5 ± 1.1	26.5 ± 0.42	4.81 ± 0.13	7.36 ± 0.68	
MRLGSPGLLFLLFSSLRADTQEKEVRAMVGSDVELSCACPEGSRFDLNDVYVYWQTSESKTVVTYHIPQNSSLENVDSRYRNRALMSPAGMLRGDFSLRLFNVTPQDEQKFHCLVLSQSLGFQEVLSVEVTLHVAANFSVPVVSAPHSPSQDELTFTCTSINGYPRPNVYWINKTDNSLLDQALQNDTVFLNMRGLYDVVSVLRIARTPSVNIGCCIENVLLQQNLTVGSQTGNDIGERDKITENPVSTGEKNAATWSILAVLCLLVVVAVAIGWVCRDRCLQHSYAGAWAVSPETELTGHV	27.1 ± 2.8	25.8 ± 2.6	5.11 ± 0.35	6.86 ± 0.54	
MRLHLLLLLALCGAGTTAAELSYSLRGNWSICNGNGSLELPGAVPGCVHSALFQQGLIQDSYYRFNDLNYRWVSLDNWTYSKEFKIPFEISKWQKVNLILEGVDTVSKILFNEVTIGETDNMFNRYSFDITNVVRDVNSIELRFQSAVLYAAQQSKAHTRYQVPPDCPPLVQKGECHVNFVRKEQCSFSWDWGPSFPTQGIWKDVRIEAYNICHLNYFTFSPIYDKSAQEWNLEIESTFDVVSSKPVGGQVIVAIPKLQTQQTYSIELQPGKRIVELFVNISKNITVETWWPHGHGNQTGYNMTVLFELDGGLNIEKSAKVYFRTVELIEEPIKGSPGLSFYFKINGFPIFLKGSNWIPADSFQDRVTSELLRLLLQSVVDANMNTLRVWGGGIYEQDEFYELCDELGIMVWQDFMFACALYPTDQGFLDSVTAEVAYQIKRLKSHPSIIIWSGNNENEEALMMNWYHISFTDRPIYIKDYVTLYVKNIRELVLAGDKSRPFITSSPTNGAETVAEAWVSQNPNSNYFGDVHFYDYISDCWNWKVFPKARFASEYGYQSWPSFSTLEKVSSTEDWSFNSKFSLHRQHHEGGNKQMLYQAGLHFKLPQSTDPLRTFKDTIYLTQVMQAQCVKTETEFYRRSRSEIVDQQGHTMGALYWQLNDIWQAPSWASLEYGGKWKMLHYFAQNFFAPLLPVGFENENTFYIYGVSDLHSDYSMTLSVRVHTWSSLEPVCSRVTERFVMKGGEAVCLYEEPVSELLRRCGNCTRESCVVSFYLSADHELLSPTNYHFLSSPKEAVGLCKAQITAIISQQGDIFVFDLETSAVAPFVWLDVGSIPGRFSDNGFLMTEKTRTILFYPWEPTSKNELEQSFHVTSLTDIY					percentage of EdU-negative (MCF7; [4]): 25.3 ± 0.54%; percentage of EdU-negative (MCF7; [5]): 28.1 ± 0.47%; percentage of EdU-negative (hTERT-HMEC; [4]): 5.29 ± 0.2%; percentage of EdU-negative (hTERT-HMEC; [5]): 5.9 ± 0.22%
